“And” between values parts separate entries of the source, which are not always exact repeats. Identical values can stand only once.
Test: Phase 1 (1a/1b) pharmacokinetics: plasma concentrations after single IV dose (validated direct fluorescence reader assay), noncompartmental analysis
Assay type: in vivo, human
Settings: 1.2 mg/kg
Description: Phase 1 is a single-Principal Investigator, non-randomized, open-label, single-arm, cross-sectional study to evaluate the safety, PK profile, and imaging feasibility of Compound 1 in patients with solid cancers who require surgical excision. The main purpose of this study was to investigate the safety, PK, and feasibility of Compound 1 as an intra-operative optical imaging agent to detect tumors and metastatic lymph nodes in solid cancers. The study was intended to investigate the optimal dose range of Compound 1 for an adequate TBR and CNR of fluorescence obtained intraoperatively at 24 (±8) hours post dosing and with ex vivo specimens using ICG compatible cameras and imaging devices.
Phase 1 enrolled 30 patients with solid cancers (HNSCC, breast cancer, esophageal cancer, or colorectal cancer) who have a biopsy-confirmed diagnosis of respective tumor types and are scheduled to undergo surgical resection of the tumor. The study design included a standard 3+3 design for the dose-escalation portion (Phase 1a; N=18 maximum) followed by a dose-expansion portion (Phase 1b; N=15). All patients received a single I.V. dose of Compound 1, followed by routine surgery approximately 24 hours after infusion of Compound 1.
Phase 1a was a dose-finding study performed in 5 cohorts of 3 patients each. The dose levels evaluated were […], and 1.2 mg/kg, in this sequence. Inter-cohort dose escalation took place after the last patient in the previous cohort completed the Day 10 safety assessment. Safety, PK, and imaging feasibility were evaluated in both the Phase 1a and 1b portions of the study. Patient safety is assessed during the study and for up to 10 days post-dose.
Study design: Single Compound 1 IV dose was administered as a 1-5 minute IV infusion to patients in five cohorts (0.1, 0.3, 0.5, 0.8, and 1.2 mg/kg) with three patients per cohort in Phase 1a and 15 patients at a dose of 1.2 mg/kg in Phase 1b. Patient demographic information including tumor types is presented in Table 4 and 5 for Phase 1a and Table 5 for Phase 1b. Intertek Pharmaceutical Services (San Diego, Calif.) determined Compound 1 plasma concentrations using a validated direct fluorescence reader assay. Pacific BioDevelopment (Davis, Calif.) performed the PK analysis.
Sample collection: Blood samples were collected prior to infusion and at 10 minutes and 0.5, 1, 3, 8, 24, 48, 72, and 240 hours after infusion.
Analysis: Plasma concentration versus time profiles were generated for each patient. Pharmacokinetic parameters were estimated using Phoenix WinNonlin (version 8.0). According to SOP, concentrations reported as BQL were set to 0 except for the 0.5 h sample for subject #ON1102, which was set to LLOQ/2 ([…] value used in parameter calculations) and the 24 and 48 h samples.
If the coefficient of determination for the terminal slope estimation was less than 0.8, T1/2 was not reported (NR). AUC extrapolated to infinity is not reported for any data set because in all cases the % extrapolated AUC was greater than 20% and thus the AUCinf estimate would not be reliable. The concentration at 10 minutes, the first time point measured (C10m), was also reported for each patient.
The area under the plasma concentration versus time curves from dosing to the last time point with a measurable concentration (AUClast) was estimated by the linear trapezoid method. The last three or more time points were used to estimate the elimination rate constant (λz) which was used to estimate the terminal-phase half-life (T1/2) and AUC from zero to infinity (AUCINF) from the following equations: […]

In the case of “PEO90-140-b-P(DBA60-150-r-ICG0-3-r-AMA0-3) [Compound 1]”, the “Differences in pharmacokinetic parameters based on tumor type” value (Phase 1a and Phase 1b) is reported as “no apparent differences”, the T1/2 (ALL cancer types, Mean, N 16) is reported as 44.5 h and the AUC0-24 hr (ALL cancer types, Mean, N 18) is reported as 615 µg·h/mL. For the same substance, the AUCall (ALL cancer types, Mean, N 18) was 1670 µg·h/mL, the AUClast (ALL cancer types, Mean, N 18) was 1100 µg·h/mL and the C10 m (ALL cancer types, Mean, N 18) was 33.0 µg/mL. It also gave a Cmax (ALL cancer types, Mean, N 18) of 34.3 µg/mL, a Tmax (ALL cancer types, Mean, N 18) of 50 min and a T1/2 (ALL cancer types, Median, N 16) of 40.5 h. The AUC0-24 hr (ALL cancer types, Median, N 18) was 615 µg·h/mL, the AUCall (ALL cancer types, Median, N 18) was 1170 µg·h/mL and the AUClast (ALL cancer types, Median, N 18) was 997 µg·h/mL. The C10 m (ALL cancer types, Median, N 18) was 32.4 µg/mL, the Cmax (ALL cancer types, Median, N 18) was 33.6 µg/mL and the Tmax (ALL cancer types, Median, N 18) was 30 min. For the same substance, the AUC0-24 hr (BC, Mean, N 5) was 592 µg·h/mL, the AUCall (BC, Mean, N 5) was 1730 µg·h/mL and the AUClast (BC, Mean, N 5) was 1150 µg·h/mL. The C10 m (BC, Mean, N 5) was 31.2 µg/mL, the Cmax (BC, Mean, N 5) was 32.9 µg/mL and the T1/2 (BC, Mean, N 5) was 51.0 h. It also gave a Tmax (BC, Mean, N 5) of 38 min, an AUC0-24 hr (BC, Median, N 5) of 574 µg·h/mL and an AUCall (BC, Median, N 5) of 1170 µg·h/mL. For the same substance, the AUClast (BC, Median, N 5) was 1020 µg·h/mL, the C10 m (BC, Median, N 5) was 33.0 µg/mL and the Cmax (BC, Median, N 5) was 33.0 µg/mL. The T1/2 (BC, Median, N 5) was 45.5 h, the Tmax (BC, Median, N 5) was 30 min and the AUC0-24 hr (BC, individual subjects) was 630 µg·h/mL and 693 µg·h/mL and 574 µg·h/mL and 562 µg·h/mL and 502 µg·h/mL. For the same substance, the AUCall (BC, individual subjects) was 1170 µg·h/mL and 3190 µg·h/mL and 1020 µg·h/mL and 1120 µg·h/mL and 2120 µg·h/mL, the AUClast (BC, individual subjects) was 1020 µg·h/mL and 1740 µg·h/mL and 891 µg·h/mL and 968 µg·h/mL and 1110 µg·h/mL and the C10 m (BC, individual subjects) was 36.5 μg/mL and 33.0 μg/mL (2×) and 28.0 μg/mL and 25.5 μg/mL. The Cmax (BC, individual subjects) was 37.7 µg/mL and 34.3 µg/mL and 33.0 µg/mL and 32.0 µg/mL and 27.6 µg/mL, the T1/2 (BC, individual subjects) was 34.5 h and 83.0 h and 30.6 h and 45.5 h and 61.4 h and the Tmax (BC, individual subjects) was 60 min and 10.2 min and 30 min. The AUC0-24 hr (CRC, Mean, N 3) was 677 µg·h/mL, the AUCall (CRC, Mean, N 3) was 1790 µg·h/mL and the AUClast (CRC, Mean, N 3) was 1150 µg·h/mL. It also gave a C10 m (CRC, Mean, N 3) of 35.5 µg/mL, a Cmax (CRC, Mean, N 3) of 36.4 µg/mL and a T1/2 (CRC, Mean, N 3) of 46.3 h. It also gave a Tmax (CRC, Mean, N 3) of 33.4 min, an AUC0-24 hr (CRC, Median, N 3) of 684 µg·h/mL and an AUCall (CRC, Median, N 3) of 1090 µg·h/mL. The AUClast (CRC, Median, N 3) was 971 µg·h/mL, the C10 m (CRC, Median, N 3) was 35.8 µg/mL and the Cmax (CRC, Median, N 3) was 36.4 µg/mL. For the same substance, the T1/2 (CRC, Median, N 3) was 33.4 h, the Tmax (CRC, Median, N 3) was 30 min and the AUC0-24 hr (CRC, individual subjects) was 721 µg·h/mL and 684 µg·h/mL and 626 µg·h/mL. For the same substance, the AUCall (CRC, individual subjects) was 3350 µg·h/mL and 939 µg·h/mL and 1090 µg·h/mL, the AUClast (CRC, individual subjects) was 1780 µg·h/mL and 684 µg·h/mL and 971 µg·h/mL and the C10 m (CRC, individual subjects) was 38.6 µg/mL and 32.1 µg/mL and 35.8 µg/mL. For the same substance, the Cmax (CRC, individual subjects) was 38.6 µg/mL and 34.1 µg/mL and 36.4 µg/mL, the T1/2 (CRC, individual subjects) was 77.9 h and 33.4 h and 27.7 h and the Tmax (CRC, individual subjects) was 10.2 min and 60 min and 30 min. It also gave an AUC0-24 hr (EC, Mean, N 3) of 659 µg·h/mL, an AUCall (EC, Mean, N 3) of 1570 µg·h/mL and an AUClast (EC, Mean, N 3) of 1170 µg·h/mL. For the same substance, the C10 m (EC, Mean, N 3) was 34.7 µg/mL, the Cmax (EC, Mean, N 3) was 35.8 µg/mL and the T1/2 (EC, Mean, N 3) was 37.1 h. The Tmax (EC, Mean, N 3) was 43.4 min, the AUC0-24 hr (EC, Median, N 3) was 606 µg·h/mL and the AUCall (EC, Median, N 3) was 1460 µg·h/mL. It also gave an AUClast (EC, Median, N 3) of 1270 µg·h/mL, a C10 m (EC, Median, N 3) of 32.6 µg/mL and a Cmax (EC, Median, N 3) of 32.6 µg/mL. For the same substance, the T1/2 (EC, Median, N 3) was 34.4 h, the Tmax (EC, Median, N 3) was 60 min and the AUC0-24 hr (EC, individual subjects) was 606 µg·h/mL and 787 µg·h/mL and 585 µg·h/mL. The AUCall (EC, individual subjects) was 2150 µg·h/mL and 1460 µg·h/mL and 1100 µg·h/mL, the AUClast (EC, individual subjects) was 1280 µg·h/mL and 1270 µg·h/mL and 961 µg·h/mL and the C10 m (EC, individual subjects) was 31.4 µg/mL and 40.0 µg/mL and 32.6 µg/mL. For the same substance, the Cmax (EC, individual subjects) was 32.6 µg/mL and 42.2 µg/mL, the T1/2 (EC, individual subjects) was 43.3 h and 34.4 h and 33.6 h and the Tmax (EC, individual subjects) was 60 min and 10.2 min. The T1/2 (HNSCC, Mean, N 5) was 41.4 h, the AUC0-24 hr (HNSCC, Mean, N 7) was 585 µg·h/mL and the AUCall (HNSCC, Mean, N 7) was 1620 µg·h/mL. The AUClast (HNSCC, Mean, N 7) was 1020 µg·h/mL and the C10 m (HNSCC, Mean, N 7) was 32.5 µg/mL.
